The text below walks through data of patent US20220411530A1 (NANTONG YICHEN BIOPHARMA, published 2022).

In experiment [1] the target is T1, PSMA on the surface of LnCap cells (human, UniProt Q04609 1-750). The experiment in a line: cell-based or functional assay.
For experiment [2], the target named is T2, CD3 on Jurkat (CD3+) cells (Homo sapiens (Human), UniProt P07766 23-207; P04234 22-171; P09693 23-182).
T2 construct: also called Jurkat T cells
The experiment in a line: flow cytometry on Jurkat (CD3+) cells. On the technique in general: Flow cytometry measures light scatter and fluorescence of single cells or particles in a stream.

Experiment [3] has as its target T1, PSMA on the surface of LnCap cells. The experiment in a line: flow cytometry on LnCap (PSMA+) cells.

T1 sequence (Q04609 whole entry): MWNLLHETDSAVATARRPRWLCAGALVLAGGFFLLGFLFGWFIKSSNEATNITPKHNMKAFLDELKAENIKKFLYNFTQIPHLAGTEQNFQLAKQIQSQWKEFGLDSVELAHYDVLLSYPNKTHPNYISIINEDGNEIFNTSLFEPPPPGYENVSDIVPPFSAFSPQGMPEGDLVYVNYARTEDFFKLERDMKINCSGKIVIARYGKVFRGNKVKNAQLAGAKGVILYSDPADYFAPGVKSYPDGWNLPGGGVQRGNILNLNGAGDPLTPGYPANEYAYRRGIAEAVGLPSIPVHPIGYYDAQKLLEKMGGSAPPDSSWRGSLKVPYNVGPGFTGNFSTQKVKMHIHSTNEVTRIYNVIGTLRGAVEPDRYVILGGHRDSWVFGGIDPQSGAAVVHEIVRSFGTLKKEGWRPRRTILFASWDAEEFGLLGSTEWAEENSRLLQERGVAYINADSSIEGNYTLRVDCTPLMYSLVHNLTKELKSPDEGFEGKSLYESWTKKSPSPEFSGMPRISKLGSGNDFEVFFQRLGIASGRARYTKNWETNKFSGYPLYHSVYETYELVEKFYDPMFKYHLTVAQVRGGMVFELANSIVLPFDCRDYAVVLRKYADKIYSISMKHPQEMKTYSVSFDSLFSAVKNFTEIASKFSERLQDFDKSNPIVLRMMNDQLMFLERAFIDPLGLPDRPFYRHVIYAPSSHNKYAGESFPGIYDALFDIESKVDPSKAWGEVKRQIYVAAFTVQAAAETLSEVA
T2 sequence (P07766 23-207 limits assumed, form in doubt, chain 1 of 3): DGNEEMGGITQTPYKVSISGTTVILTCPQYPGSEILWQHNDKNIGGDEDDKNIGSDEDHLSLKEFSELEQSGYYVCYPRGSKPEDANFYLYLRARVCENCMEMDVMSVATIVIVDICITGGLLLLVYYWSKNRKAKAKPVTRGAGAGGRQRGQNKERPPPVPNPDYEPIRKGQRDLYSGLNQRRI
T2 sequence (P04234 22-171 limits assumed, form in doubt, chain 2 of 3): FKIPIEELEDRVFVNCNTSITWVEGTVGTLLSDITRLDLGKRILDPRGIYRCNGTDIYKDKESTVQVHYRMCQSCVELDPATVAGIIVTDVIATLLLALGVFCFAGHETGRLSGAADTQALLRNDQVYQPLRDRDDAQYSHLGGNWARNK
T2 sequence (P09693 23-182 limits assumed, form in doubt, chain 3 of 3): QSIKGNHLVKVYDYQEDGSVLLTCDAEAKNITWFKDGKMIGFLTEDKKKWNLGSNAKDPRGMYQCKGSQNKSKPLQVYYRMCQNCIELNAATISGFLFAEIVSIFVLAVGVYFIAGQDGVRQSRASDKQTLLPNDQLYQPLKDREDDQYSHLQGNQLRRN

B1: aCD3-aPSMA bispecific antibody (bispecific antibody)
chain 1: not shown
chain 2: EVQLVESGGGLVQPGGSLRLSCAASGFTFNTYAMNWVRQAPGKGLEWVARIRSKYNNYATYYADSVKDRFTISRDDSKNTLYLQMNSLRAEDTAVYYCVRHGNFGNSYVSWFAYWGQGTLVTVSS
notes: also called the bispecific antibody
For orientation: EC50 means the concentration at which the effect is half-maximal. Low values mean a more potent agent, high ones a less potent agent. On to B1, for which the “LDH Killing EC50 (pM)” value in experiment [1] was found to be 184 pM. Also, the EC50 in experiment [2] came out at 0.51 nM; in experiment [3], 0.05 nM.
